From the RNAGym collection of RNA variant scans (doi:10.7554/elife.80360)

B1: Twister Ribozyme (parent)
chain: AACACUGCCAAUGCCGGUCCCAAGCCCGGAUAAAAGUGGAGGGGGCGG

Variants of: B1
Assay: self-cleavage, relative activity (ratio to wild type); higher = more cleavage; co-transcriptional

| Variant | self-cleavage |
| --- | --- |
| A2G G42U | 0.11 |
| A2G G44A | 0.316 |
| A2G G44C | 0.212 |
| A2G G44U | 0.215 |
| A2G G45A | 0.338 |
| A2G G45U | 0.159 |
| A2G G47C | 0.212 |
| A2G G48A | 0.217 |
| A2G U6C | 0.103 |
| A2G U6G | 0.161 |
| A2G U12C | 0.316 |
| A2G U18C | 0.102 |
| A2G U37A | 0.142 |
| A2G U37G | 0.173 |
| A2U A4C | 0.0829 |
| A2U A10G | 0.674 |
| A2U A11G | 0.586 |
| A2U A22U | 0.11 |
| A2U A23C | 0.107 |
| A2U A23U | 0.106 |
| A2U A30C | 0.182 |
| A2U A30G | 0.772 |
| A2U A32C | 0.581 |
| A2U A32G | 0.605 |

| Variant | self-cleavage |
| --- | --- |
| A2U A33G | 0.503 |
| A2U A34C | 0.15 |
| A2U A34U | 0.189 |
| A2U A35G | 0.207 |
| A2U A35U | 0.574 |
| A2U A40C | 0.155 |
| A2U A40U | 0.154 |
| A2U C8A | 0.078 |
| A2U C9G | 0.119 |
| A2U C14G | 0.0946 |
| A2U C14U | 0.591 |
| A2U C15U | 0.531 |
| A2U C19G | 0.0882 |
| A2U C20A | 0.08 |
| A2U C20U | 0.3 |
| A2U C26G | 0.128 |
| A2U C26U | 0.069 |
| A2U C46A | 0.513 |
| A2U C46U | 0.723 |
| A2U G7A | 0.0893 |
| A2U G7U | 0.0853 |
| A2U G13A | 0.153 |
| A2U G13C | 0.0514 |
| A2U G13U | 0.103 |

| Variant | self-cleavage |
| --- | --- |
| A2U G16C | 0.13 |
| A2U G16U | 0.309 |
| A2U G17C | 0.0754 |
| A2U G17U | 0.0826 |
| A2U G24U | 0.0983 |
| A2U G28A | 0.409 |
| A2U G28C | 0.533 |
| A2U G29C | 0.195 |
| A2U G36A | 0.158 |
| A2U G36U | 0.113 |
| A2U G39A | 0.12 |
| A2U G41A | 0.111 |
| A2U G41C | 0.175 |
| A2U G43C | 0.137 |
| A2U G43U | 0.139 |
| A2U G44A | 0.615 |
| A2U G44C | 0.439 |
| A2U G44U | 0.429 |
| A2U G45A | 0.514 |
| A2U G45C | 0.191 |
| A2U G47C | 0.174 |
| A2U G47U | 0.23 |
| A2U G48U | 0.581 |
| A2U U6C | 0.0754 |

| Variant | self-cleavage |
| --- | --- |
| A2U U12C | 0.732 |
| A2U U18C | 0.147 |
| A2U U31C | 0.652 |
| A2U U37C | 0.114 |
| A2U U37G | 0.214 |
| C3A | 0.228 |
| C3A A4G | 0.102 |
| C3A A10G | 0.322 |
| C3A A10U | 0.0843 |
| C3A A11G | 0.185 |
| C3A A22U | 0.127 |
| C3A A23G | 0.0731 |
| C3A A23U | 0.133 |
| C3A A30U | 0.184 |
| C3A A33C | 0.147 |
| C3A A33U | 0.203 |
| C3A A34C | 0.0676 |
| C3A A35G | 0.222 |
| C3A A40G | 0.0819 |
| C3A A40U | 0.0819 |
| C3A C8A | 0.116 |
| C3A C8G | 0.0742 |
| C3A C8U | 0.122 |
| C3A C9A | 0.155 |

| Variant | self-cleavage |
| --- | --- |
| C3A C9G | 0.217 |
| C3A C14A | 0.15 |
| C3A C14U | 0.176 |
| C3A C19A | 0.0415 |
| C3A C19U | 0.153 |
| C3A C20U | 0.403 |
| C3A C21G | 0.0514 |
| C3A C21U | 0.0858 |
| C3A C25U | 0.16 |
| C3A C26A | 0.139 |
| C3A C26G | 0.0639 |
| C3A C27G | 0.0917 |
| C3A G7A | 0.0709 |
| C3A G7U | 0.0571 |
| C3A G13C | 0.0651 |
| C3A G16A | 0.109 |
| C3A G16C | 0.0608 |
| C3A G17A | 0.0964 |
| C3A G24A | 0.0635 |
| C3A G24U | 0.0787 |
| C3A G28C | 0.179 |
| C3A G29A | 0.232 |
| C3A G29U | 0.231 |
| C3A G36A | 0.0998 |

| Variant | self-cleavage |
| --- | --- |
| C3A G36C | 0.0352 |
| C3A G36U | 0.0633 |
| C3A G38A | 0.268 |
| C3A G38U | 0.191 |
| C3A G39C | 0.0623 |
| C3A G41A | 0.0897 |
| C3A G41U | 0.0613 |
| C3A G42A | 0.0462 |
| C3A G42C | 0.0718 |
| C3A G43C | 0.0669 |
| C3A G43U | 0.0615 |
| C3A G44A | 0.221 |
| C3A G45A | 0.233 |
| C3A G47C | 0.145 |
| C3A G48A | 0.277 |
| C3A G48U | 0.282 |
| C3A U6A | 0.0998 |
| C3A U12C | 0.425 |
| C3A U31A | 0.163 |
| C3A U31C | 0.224 |
| C3A U31G | 0.121 |
| C3A U37A | 0.201 |
| C3A U37C | 0.193 |
| C3G | 0.541 |

| Variant | self-cleavage |
| --- | --- |
| C3G A10C | 0.28 |
| C3G A10U | 0.648 |
| C3G A11C | 0.295 |
| C3G A11G | 0.503 |
| C3G A22U | 0.384 |
| C3G A23C | 0.137 |
| C3G A23G | 0.106 |
| C3G A23U | 0.107 |
| C3G A30G | 0.239 |
| C3G A30U | 0.427 |
| C3G A32G | 0.434 |
| C3G A33C | 0.357 |
| C3G A33G | 0.483 |
| C3G A34C | 0.0918 |
| C3G A34G | 0.235 |
| C3G A34U | 0.203 |
| C3G A35C | 0.397 |
| C3G A40G | 0.111 |
| C3G C8G | 0.153 |
| C3G C8U | 0.389 |
| C3G C9U | 0.191 |
| C3G C15A | 0.161 |
| C3G C15G | 0.133 |
